Source: PMC9482650, “Quantitative fragmentomics allow affinity mapping of interactomes” (Nature Communications, 2022)

target: T1, MPP7, Q5T2T1; assay: holdup assay; design: key: below the threshold = too weak to quantify, mostly under pKd 3.1 to 4; settings: plain residues with an end cap or a label only (N-terminal biotin on a linker: ado-ado)
T1 sequence (Q5T2T1 134-230, limits assumed, looked up): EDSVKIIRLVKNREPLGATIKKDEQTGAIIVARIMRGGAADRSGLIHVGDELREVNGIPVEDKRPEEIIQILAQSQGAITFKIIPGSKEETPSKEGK

| Binder | pKd |
| --- | --- |
| MLPANYVEAI [NEB, P20929] | below the threshold |
| TKDKVQETQI [LRRC4, Q9HBW1] | below the threshold |

target: FRMPD4, Q14CM0; assay: holdup assay; design: key: below the threshold = too weak to quantify, mostly under pKd 3.1 to 4; settings: plain residues with an end cap or a label only (N-terminal biotin on a linker: ado-ado)
Sequence (Q14CM0 67-160): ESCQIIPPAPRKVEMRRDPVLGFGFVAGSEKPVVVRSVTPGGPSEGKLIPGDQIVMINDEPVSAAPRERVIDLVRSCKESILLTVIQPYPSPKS

| Binder | pKd |
| --- | --- |
| MLPANYVEAI [NEB, P20929] | below the threshold |
| TKDKVQETQI [LRRC4, Q9HBW1] | 3.57 |

target: T2, RAPGEF6, Q8TEU7; assay: holdup assay; design: key: below the threshold = too weak to quantify, mostly under pKd 3.1 to 4; settings: plain residues with an end cap or a label only (N-terminal biotin on a linker: ado-ado)
T2 sequence (Q8TEU7 525-625, limits assumed, looked up): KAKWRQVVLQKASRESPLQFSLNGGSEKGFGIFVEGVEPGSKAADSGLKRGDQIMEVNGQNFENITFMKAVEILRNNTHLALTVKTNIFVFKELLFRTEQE

| Binder | pKd |
| --- | --- |
| MLPANYVEAI [NEB, P20929] | below the threshold |
| TKDKVQETQI [LRRC4, Q9HBW1] | below the threshold |

target: CASK, O14936; assay: holdup assay; design: key: below the threshold = too weak to quantify, mostly under pKd 3.1 to 4; settings: plain residues with an end cap or a label only (N-terminal biotin on a linker: ado-ado)
Sequence (O14936 487-570): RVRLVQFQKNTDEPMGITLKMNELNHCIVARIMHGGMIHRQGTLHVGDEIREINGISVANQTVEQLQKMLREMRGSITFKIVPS

| Binder | pKd |
| --- | --- |
| MLPANYVEAI [NEB, P20929] | below the threshold |
| TKDKVQETQI [LRRC4, Q9HBW1] | below the threshold |

target: MAST1, Q9Y2H9; assay: holdup assay; design: key: below the threshold = too weak to quantify, mostly under pKd 3.1 to 4; settings: plain residues with an end cap or a label only (N-terminal biotin on a linker: ado-ado)
Sequence (Q9Y2H9 962-1065): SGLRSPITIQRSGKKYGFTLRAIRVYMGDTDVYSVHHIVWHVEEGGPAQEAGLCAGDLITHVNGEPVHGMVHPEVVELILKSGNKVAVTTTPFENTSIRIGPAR

| Binder | pKd |
| --- | --- |
| MLPANYVEAI [NEB, P20929] | below the threshold |
| TKDKVQETQI [LRRC4, Q9HBW1] | 4.28 |

target: LDB3, O75112; assay: holdup assay; design: key: below the threshold = too weak to quantify, mostly under pKd 3.1 to 4; settings: plain residues with an end cap or a label only (N-terminal biotin on a linker: ado-ado)
Sequence (O75112 1-94): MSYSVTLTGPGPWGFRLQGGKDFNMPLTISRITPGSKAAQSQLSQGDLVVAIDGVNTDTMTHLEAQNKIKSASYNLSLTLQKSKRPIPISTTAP

| Binder | pKd |
| --- | --- |
| MLPANYVEAI [NEB, P20929] | below the threshold |
| TKDKVQETQI [LRRC4, Q9HBW1] | below the threshold |

target: HTRA2, O43464; assay: holdup assay; design: key: below the threshold = too weak to quantify, mostly under pKd 3.1 to 4; settings: plain residues with an end cap or a label only (N-terminal biotin on a linker: ado-ado)
Sequence (O43464 355-458): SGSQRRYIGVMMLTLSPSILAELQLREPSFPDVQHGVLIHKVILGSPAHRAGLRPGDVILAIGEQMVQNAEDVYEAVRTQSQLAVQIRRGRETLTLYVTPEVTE

| Binder | pKd |
| --- | --- |
| MLPANYVEAI [NEB, P20929] | below the threshold |
| TKDKVQETQI [LRRC4, Q9HBW1] | below the threshold |

target: MAGI2_5, Q86UL8; assay: holdup assay; design: key: below the threshold = too weak to quantify, mostly under pKd 3.1 to 4; settings: plain residues with an end cap or a label only (N-terminal biotin on a linker: ado-ado)
Sequence (Q86UL8 915-1017): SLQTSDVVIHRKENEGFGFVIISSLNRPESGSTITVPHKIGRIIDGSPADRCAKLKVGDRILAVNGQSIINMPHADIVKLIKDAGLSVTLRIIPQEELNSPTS

| Binder | pKd |
| --- | --- |
| MLPANYVEAI [NEB, P20929] | below the threshold |
| TKDKVQETQI [LRRC4, Q9HBW1] | 3.96 |

target: T3, RADIL, Q96JH8; assay: holdup assay; design: key: below the threshold = too weak to quantify, mostly under pKd 3.1 to 4; settings: plain residues with an end cap or a label only (N-terminal biotin on a linker: ado-ado)
T3 sequence (Q96JH8 971-1071, limits assumed, looked up): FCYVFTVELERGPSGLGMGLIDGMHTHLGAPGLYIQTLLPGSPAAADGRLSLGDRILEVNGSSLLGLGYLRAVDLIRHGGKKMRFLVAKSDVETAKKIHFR

| Binder | pKd |
| --- | --- |
| MLPANYVEAI [NEB, P20929] | 3.65 |
| TKDKVQETQI [LRRC4, Q9HBW1] | below the threshold |

target: MAGI2_3, Q86UL8; assay: holdup assay; design: key: below the threshold = too weak to quantify, mostly under pKd 3.1 to 4; settings: plain residues with an end cap or a label only (N-terminal biotin on a linker: ado-ado)
Sequence (Q86UL8 600-682): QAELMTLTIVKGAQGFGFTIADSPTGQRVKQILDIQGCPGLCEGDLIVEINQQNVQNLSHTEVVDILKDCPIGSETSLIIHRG

| Binder | pKd |
| --- | --- |
| MLPANYVEAI [NEB, P20929] | below the threshold |
| TKDKVQETQI [LRRC4, Q9HBW1] | 3.96 |

target: T4, GRIP1_2, Q9Y3R0; assay: holdup assay; design: key: below the threshold = too weak to quantify, mostly under pKd 3.1 to 4; settings: plain residues with an end cap or a label only (N-terminal biotin on a linker: ado-ado)
T4 sequence (Q9Y3R0 145-248, limits assumed, looked up): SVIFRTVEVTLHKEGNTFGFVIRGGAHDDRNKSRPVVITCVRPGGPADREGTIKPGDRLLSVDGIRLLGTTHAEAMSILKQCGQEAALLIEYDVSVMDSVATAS

| Binder | pKd |
| --- | --- |
| MLPANYVEAI [NEB, P20929] | below the threshold |
| TKDKVQETQI [LRRC4, Q9HBW1] | below the threshold |

target: GIPC2, Q8TF65; assay: holdup assay; design: key: below the threshold = too weak to quantify, mostly under pKd 3.1 to 4; settings: plain residues with an end cap or a label only (N-terminal biotin on a linker: ado-ado)
Sequence (Q8TF65 112-203): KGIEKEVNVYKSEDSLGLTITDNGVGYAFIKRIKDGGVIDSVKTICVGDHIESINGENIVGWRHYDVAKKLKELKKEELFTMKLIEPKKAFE

| Binder | pKd |
| --- | --- |
| MLPANYVEAI [NEB, P20929] | below the threshold |
| TKDKVQETQI [LRRC4, Q9HBW1] | 3.68 |

target: MAGI3_2, Q5TCQ9; assay: holdup assay; design: key: below the threshold = too weak to quantify, mostly under pKd 3.1 to 4; settings: plain residues with an end cap or a label only (N-terminal biotin on a linker: ado-ado)
Sequence (Q5TCQ9 398-503): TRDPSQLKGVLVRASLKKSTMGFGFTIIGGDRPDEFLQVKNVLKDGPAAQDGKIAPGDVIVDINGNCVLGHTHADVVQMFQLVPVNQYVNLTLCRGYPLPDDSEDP

| Binder | pKd |
| --- | --- |
| MLPANYVEAI [NEB, P20929] | below the threshold |
| TKDKVQETQI [LRRC4, Q9HBW1] | 4.87 |

target: T5, LRRC7, Q96NW7; assay: holdup assay; design: key: below the threshold = too weak to quantify, mostly under pKd 3.1 to 4; settings: plain residues with an end cap or a label only (N-terminal biotin on a linker: ado-ado)
T5 sequence (Q96NW7 1440-1537, limits assumed, looked up): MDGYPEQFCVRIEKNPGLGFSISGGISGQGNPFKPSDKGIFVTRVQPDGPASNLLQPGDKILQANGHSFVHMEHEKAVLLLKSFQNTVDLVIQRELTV

| Binder | pKd |
| --- | --- |
| MLPANYVEAI [NEB, P20929] | below the threshold |
| TKDKVQETQI [LRRC4, Q9HBW1] | 3.53 |

target: GRIP2_6, Q9C0E4; assay: holdup assay; design: key: below the threshold = too weak to quantify, mostly under pKd 3.1 to 4; settings: plain residues with an end cap or a label only (N-terminal biotin on a linker: ado-ado)
Sequence (Q9C0E4 648-740): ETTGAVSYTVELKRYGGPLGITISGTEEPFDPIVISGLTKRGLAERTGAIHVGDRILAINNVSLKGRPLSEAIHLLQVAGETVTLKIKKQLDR

| Binder | pKd |
| --- | --- |
| MLPANYVEAI [NEB, P20929] | below the threshold |
| TKDKVQETQI [LRRC4, Q9HBW1] | below the threshold |

target: PTPN3, P26045; assay: holdup assay; design: key: below the threshold = too weak to quantify, mostly under pKd 3.1 to 4; settings: plain residues with an end cap or a label only (N-terminal biotin on a linker: ado-ado)
Sequence (P26045 505-587): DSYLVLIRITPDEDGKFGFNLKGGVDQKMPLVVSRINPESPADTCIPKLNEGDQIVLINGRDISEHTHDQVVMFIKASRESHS

| Binder | pKd |
| --- | --- |
| MLPANYVEAI [NEB, P20929] | 3.64 |
| TKDKVQETQI [LRRC4, Q9HBW1] | 5.05 |

target: IL16_1, Q14005; assay: holdup assay; design: key: below the threshold = too weak to quantify, mostly under pKd 3.1 to 4; settings: plain residues with an end cap or a label only (N-terminal biotin on a linker: ado-ado)
Sequence (Q14005 210-306): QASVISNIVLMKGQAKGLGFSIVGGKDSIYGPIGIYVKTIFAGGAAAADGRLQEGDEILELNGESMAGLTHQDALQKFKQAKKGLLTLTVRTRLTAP

| Binder | pKd |
| --- | --- |
| MLPANYVEAI [NEB, P20929] | below the threshold |
| TKDKVQETQI [LRRC4, Q9HBW1] | 3.54 |

target: DLG4_3, P78352; assay: holdup assay; design: key: below the threshold = too weak to quantify, mostly under pKd 3.1 to 4; settings: plain residues with an end cap or a label only (N-terminal biotin on a linker: ado-ado)
Sequence (P78352 306-403): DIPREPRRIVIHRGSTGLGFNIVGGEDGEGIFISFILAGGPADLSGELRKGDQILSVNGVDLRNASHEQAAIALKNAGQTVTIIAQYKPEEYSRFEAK

| Binder | pKd |
| --- | --- |
| MLPANYVEAI [NEB, P20929] | below the threshold |
| TKDKVQETQI [LRRC4, Q9HBW1] | 4.17 |

target: PDZRN4_1, Q6ZMN7; assay: holdup assay; design: key: below the threshold = too weak to quantify, mostly under pKd 3.1 to 4; settings: plain residues with an end cap or a label only (N-terminal biotin on a linker: ado-ado)
Sequence (Q6ZMN7 213-318): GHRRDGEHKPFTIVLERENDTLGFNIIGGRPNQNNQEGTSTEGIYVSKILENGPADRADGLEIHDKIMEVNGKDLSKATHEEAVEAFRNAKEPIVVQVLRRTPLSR

| Binder | pKd |
| --- | --- |
| MLPANYVEAI [NEB, P20929] | below the threshold |
| TKDKVQETQI [LRRC4, Q9HBW1] | 4.6 |

target: Inadl_4, Q8NI35; assay: holdup assay; design: key: below the threshold = too weak to quantify, mostly under pKd 3.1 to 4; settings: plain residues with an end cap or a label only (N-terminal biotin on a linker: ado-ado)
Sequence (Q8NI35 547-651): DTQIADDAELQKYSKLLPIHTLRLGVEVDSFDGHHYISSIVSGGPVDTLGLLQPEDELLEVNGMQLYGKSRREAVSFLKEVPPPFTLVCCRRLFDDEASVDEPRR

| Binder | pKd |
| --- | --- |
| MLPANYVEAI [NEB, P20929] | below the threshold |
| TKDKVQETQI [LRRC4, Q9HBW1] | below the threshold |

target: Inadl_2, Q8NI35; assay: holdup assay; design: key: below the threshold = too weak to quantify, mostly under pKd 3.1 to 4; settings: plain residues with an end cap or a label only (N-terminal biotin on a linker: ado-ado)
Sequence (Q8NI35 238-335): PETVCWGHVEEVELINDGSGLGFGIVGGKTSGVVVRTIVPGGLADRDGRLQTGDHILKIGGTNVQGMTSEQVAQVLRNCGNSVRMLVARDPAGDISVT

| Binder | pKd |
| --- | --- |
| MLPANYVEAI [NEB, P20929] | below the threshold |
| TKDKVQETQI [LRRC4, Q9HBW1] | below the threshold |

target: T6, MPDZ_5, O75970; assay: holdup assay; design: key: below the threshold = too weak to quantify, mostly under pKd 3.1 to 4; settings: plain residues with an end cap or a label only (N-terminal biotin on a linker: ado-ado)
T6 sequence (O75970 695-796, limits assumed, looked up): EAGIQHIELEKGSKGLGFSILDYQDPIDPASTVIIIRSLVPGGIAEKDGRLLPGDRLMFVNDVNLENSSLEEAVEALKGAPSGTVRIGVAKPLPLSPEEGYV

| Binder | pKd |
| --- | --- |
| MLPANYVEAI [NEB, P20929] | below the threshold |
| TKDKVQETQI [LRRC4, Q9HBW1] | below the threshold |

target: NHERF4_1, Q86UT5-2; assay: holdup assay; design: key: below the threshold = too weak to quantify, mostly under pKd 3.1 to 4; settings: plain residues with an end cap or a label only (N-terminal biotin on a linker: ado-ado)
Sequence (Q86UT5 other isoform, or with tags, fused parts or gaps): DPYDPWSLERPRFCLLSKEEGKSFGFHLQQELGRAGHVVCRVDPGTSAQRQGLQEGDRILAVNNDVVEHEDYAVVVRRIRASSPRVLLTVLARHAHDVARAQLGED

| Binder | pKd |
| --- | --- |
| MLPANYVEAI [NEB, P20929] | below the threshold |
| TKDKVQETQI [LRRC4, Q9HBW1] | below the threshold |

target: FRMPD2_3, Q68DX3; assay: holdup assay; design: key: below the threshold = too weak to quantify, mostly under pKd 3.1 to 4; settings: plain residues with an end cap or a label only (N-terminal biotin on a linker: ado-ado)
Sequence (Q68DX3 1073-1166): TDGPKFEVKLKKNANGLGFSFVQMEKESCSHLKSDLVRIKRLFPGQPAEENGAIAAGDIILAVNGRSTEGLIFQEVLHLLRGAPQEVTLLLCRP

| Binder | pKd |
| --- | --- |
| MLPANYVEAI [NEB, P20929] | below the threshold |
| TKDKVQETQI [LRRC4, Q9HBW1] | below the threshold |

target: T7, MPDZ_10, O75970; assay: holdup assay; design: key: below the threshold = too weak to quantify, mostly under pKd 3.1 to 4; settings: plain residues with an end cap or a label only (N-terminal biotin on a linker: ado-ado)
T7 sequence (O75970 1624-1722, limits assumed, looked up): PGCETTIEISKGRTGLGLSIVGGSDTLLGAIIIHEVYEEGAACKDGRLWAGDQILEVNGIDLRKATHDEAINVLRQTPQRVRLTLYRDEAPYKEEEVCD

| Binder | pKd |
| --- | --- |
| MLPANYVEAI [NEB, P20929] | below the threshold |
| TKDKVQETQI [LRRC4, Q9HBW1] | below the threshold |

target: T8, MPP6, Q9NZW5; assay: holdup assay; design: key: below the threshold = too weak to quantify, mostly under pKd 3.1 to 4; settings: plain residues with an end cap or a label only (N-terminal biotin on a linker: ado-ado)
T8 sequence (Q9NZW5 125-219, limits assumed, looked up): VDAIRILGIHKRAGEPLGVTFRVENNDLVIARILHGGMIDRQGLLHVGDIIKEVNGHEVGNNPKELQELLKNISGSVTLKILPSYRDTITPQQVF

| Binder | pKd |
| --- | --- |
| MLPANYVEAI [NEB, P20929] | below the threshold |
| TKDKVQETQI [LRRC4, Q9HBW1] | 3.89 |

target: T9, GRIP1_7, Q9Y3R0; assay: holdup assay; design: key: below the threshold = too weak to quantify, mostly under pKd 3.1 to 4; settings: plain residues with an end cap or a label only (N-terminal biotin on a linker: ado-ado)
T9 sequence (Q9Y3R0 999-1096, limits assumed, looked up): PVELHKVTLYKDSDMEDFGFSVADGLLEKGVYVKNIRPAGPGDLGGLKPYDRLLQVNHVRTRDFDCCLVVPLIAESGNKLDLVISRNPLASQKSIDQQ

| Binder | pKd |
| --- | --- |
| MLPANYVEAI [NEB, P20929] | below the threshold |
| TKDKVQETQI [LRRC4, Q9HBW1] | below the threshold |

target: T10, DFNB31_2, Q9P202; assay: holdup assay; design: key: below the threshold = too weak to quantify, mostly under pKd 3.1 to 4; settings: plain residues with an end cap or a label only (N-terminal biotin on a linker: ado-ado)
T10 sequence (Q9P202 274-371, limits assumed, looked up): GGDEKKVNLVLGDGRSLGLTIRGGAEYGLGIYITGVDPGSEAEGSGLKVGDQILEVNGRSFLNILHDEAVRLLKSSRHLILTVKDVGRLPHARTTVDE

| Binder | pKd |
| --- | --- |
| MLPANYVEAI [NEB, P20929] | below the threshold |
| TKDKVQETQI [LRRC4, Q9HBW1] | 3.71 |
